These results are taken from publication PMC7665192, “A natriuretic peptide from Arabidopsis thaliana (AtPNP-A) can modulate catalase 2 activity” (Scientific Reports, 2020).

As a reminder, the koff is the first-order rate constant of dissociation. Read a high koff as a short-lived complex. As usually defined, the kon is the second-order rate constant of association. Read a high kon as faster complex formation.

Positions of bridges follow the written chain, without caps; N, C: chain ends. No end group written: not given here.

One data set has as its system CAT2 transcript. The following applies: exogenous application; cited from earlier work. The source says: It is also conceivable that modulation of CAT2 activity by AtPNP-A may not only have implications for plant biotic stress tolerance but may also result in changes in responses to abiotic stress. Activity of CAT2 is required for decomposition of photorespiration-derived H2O2 preventing redox perturbation under ambient growth conditions[59] while CAT2 deficiency causes a defective photorespiration phenotype including suppressed growth[58],[59] and accumulation of H2O2 in leaves. During senescence suppression of CAT2 function, mediated by G-BOX BINDING FACTOR1 (GBF1)[76], decreases CAT2 activ ...

The target of data set [1] is T1, bovine liver catalase (CAT) (bovine, UniProt P00432 1-527).
T1 construct: catalase from bovine liver, Sigma C-40; also called bovine CAT; CAT from bovine liver; source: bought: Sigma (C-40)
T1 sequence (looked up): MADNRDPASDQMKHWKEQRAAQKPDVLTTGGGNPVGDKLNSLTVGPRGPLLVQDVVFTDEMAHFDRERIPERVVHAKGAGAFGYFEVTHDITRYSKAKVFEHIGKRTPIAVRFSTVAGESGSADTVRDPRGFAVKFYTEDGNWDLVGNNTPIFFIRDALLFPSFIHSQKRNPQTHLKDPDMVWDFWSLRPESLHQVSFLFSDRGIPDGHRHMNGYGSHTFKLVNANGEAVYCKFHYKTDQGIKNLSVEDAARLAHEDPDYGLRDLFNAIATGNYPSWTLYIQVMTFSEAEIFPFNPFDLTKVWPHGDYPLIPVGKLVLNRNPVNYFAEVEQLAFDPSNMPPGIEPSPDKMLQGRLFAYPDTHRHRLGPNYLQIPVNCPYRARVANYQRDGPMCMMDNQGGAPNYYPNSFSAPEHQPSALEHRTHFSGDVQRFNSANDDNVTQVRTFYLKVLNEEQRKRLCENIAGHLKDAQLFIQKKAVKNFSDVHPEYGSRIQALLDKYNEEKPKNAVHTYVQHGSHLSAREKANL
Briefly: SPR; Biacore T100, 20 °C; bovine liver CAT immobilised by amine coupling on a CM5 chip; pAtPNP-A at 3.78 μM and consecutive twofold dilutions, 11 injections, flow 100 μL/min; regeneration with glycine pH 2.0; kinetic fit with mass transfer term. The following applies: both partners purified. (SPR reads the build-up and loss of mass on a sensor chip optically.)

The test system of data set [2] is rCAT2. Put plainly: SPR of CAT2 and AtPNP-A recombinant proteins, CM5 chip, both configurations. The settings on record: amine coupling, 20 °C. Type of data set: binding, Arabidopsis thaliana. Here is the method:
N-terminally 6xHis-tagged AtPNP-A and CAT2 proteins were expressed in BL21 (DE3) One Shot E. coli cells (Life Technologies), purified by affinity chromatography with Ni–NTA beads (Qiagen) and HisTrap HP column (GE Healthcare Lifesciences) as described in[21]. The purity of preparations was verified on 12.5% SDS-PAGE, stained with Coomassie Brilliant Blue (Bio-Rad). Protein identities were confirmed in MS analysis, and protein concentration was determined according to the method of Bradford using BSA as a standard.
SPR experiments were performed at 20 °C on Biacore T100 instrument operated using Biacore T100 control software (version 2.0.2, GE Healthcare Lifesciences) using Series S CM5 or NTA sensor chips as described in[21]. Kinetic analyses were performed at the flow of 100 μL min^−1 with pAtPNP-A (at 3.78 μM and consecutive twofold dilutions; 11 injections included) employed as a ligand and bovine liver CAT (C-40; Sigma) used as an analyte and immobilized on the active surface of the Series S CM5 sensor chip with amine coupling kit, while the surface regeneration was done with solution of glycine, pH 2.0, and the final sensorgram was generated with Scrubber (BioLogic Software Pty Ltd).
Supplementary Figure S3. In vitro association of AtPNP-A and CAT2 recombinant proteins.
(a) Recombinant protein preparations used in SPR analyses. […]

For data set [3], the system named is rCAT2. Briefly: Enzymatic activity of rCAT2, Amplex Red catalase assay. Type of data set: biochemical, Arabidopsis thaliana. The following applies: 100 nM, Amplex Red catalase assay kit; three independent experiments, P < 0.01. The protocol:
(§1) Enzymatic activity of CAT isozymes and total CAT activities of protein extracted from WT and atpnp-a or cat2-2 mutant lines, when indicated sprayed with 1 nM pAtPNP-A or pScr 20 min before harvesting, were determined zymographically and spectrophotometrically, as described in[56]. Relative quantification of intensity of bands corresponding to different CAT isoforms was performed with ImageJ version 1.48 (https://imagej.nih.gov/ij/). Enzymatic activity of the rCAT2 in the presence of absence of 100 nM rAtPNP-A, pAtPNP-A or pScr were determined with the use of Amplex Red catalase assay kit (Invitrogen) according to the manufacturer’s instructions.
(§2) Figure 3 AtPNP-A directly interacts with CAT2 to modulate its enzymatic activity in vitro. (a) Zymogram depicting changes in the enzymatic activity of CAT isoforms extracted from wild type (WT) or cat2-2 knockout mutant seedlings in response to 1 nM pAtPNP-A or pScr. Densitometric semi-quantification of bands corresponding to CAT2, normalized to the loading control (dark-coloured band on zymogram) for WT samples treated with 1 nM pAtPNP-A or pScr (mean ± SD, Student’s t-test, n = 3, P < 0.05). […] (b) Total CAT activity in protein extracted from WT seedlings assayed with Amplex Red catalase assay kit in the presence of 1 nM pAtPNP-A, rAtPNP-A, or pScr. […] (c) Enzymatic activity of rCAT2 in the presence of 100 nM pAtPNP-A, rAtPNP-A, or pScr.

Another data set has as its system CAT. Put plainly: Total CAT activity in protein extracted from WT seedlings. It counts as biochemical, Arabidopsis thaliana. The following applies: 1 nM. Here is the method: as §1, §2
The test system of data set [4] is A. thaliana (Col-0) mesophyll cell protoplasts. Put plainly: Mesophyll cell protoplast swelling (volume). It counts as cell-based, Arabidopsis thaliana. The settings on record: 100 nM peptide or 1 μg mL^−1 rAtPNP-A, 0.4 M mannitol, 20 min, room temperature, n = 50, P < 0.0001. The source says: Peptides containing amino acid sequence of the active region of AtPNP-A and corresponding scrambled peptides, having the same amino acid composition but in a randomized order (Fig. 1a), with or without C-terminal biotin tag, were synthesized by GenScript (Piscataway, USA) at the purity level > 95% verified with HPLC and their biological activity was verified as described previously.
Figure 1 Biologically active peptide containing the active region of AtPNP-A protein binds to CAT2. (a) Domain organization of AtPNP-A and the amino acid sequences of C-terminally biotinylated peptides used in affinity chromatography-based experiments—a peptide containing the active site of AtPNP-A (indicated as pAtPNP-A) or the corresponding scrambled peptide (indicated as pScr). Cysteine residues forming a disulfide bond, characteristic to natriuretic peptide (NP)-like molecules, are underlined. SP, signal peptide. (b) Assaying biological activity of the AtPNP-A peptide (pAtPNP-A) and purified recombinant protein (rAtPNP-A). […] In each treatment, 50 randomly selected protoplasts with diameter > 20 µm were included in quantitative analysis (scale bar = 20 µm). Protoplast volume was measured and the data obtained from an exemplar experiment are plotted. […]

For a further data set, the system named is CAT2. Put plainly: Bimolecular fluorescence complementation (BiFC). It counts as cell-based, Arabidopsis thaliana. The following applies: chloroplasts of tobacco leaf protoplasts, NeYFP/CeYFP fusions, mean ± SEM, n = 30, P < 0.0001. The source says:
The full-length A. thaliana AtPNP-A (At2g18660) coding region entry plasmid pENTRYAtPNP-A[46] and pCR8/GW-TOPOCAT2 were recombined separately with both pSITE-nEYFP-C1 [GenBank Accession Number GU734651] and pSITE-cEYFP-C1 [GenBank Accession Number GU734652] to create pNeYFP-AtPNP-A, pCeYFP-AtPNP-A, pNeYFP-CAT2 and pCeYFP-CAT2, respectively. Each plasmid has either the N-terminal (NeYFP) or C-terminal (CeYFP) fragment of eYFP followed by either AtPNP-A or CAT2 coding region driven by the 35S plant expression promoter. After sequence was confirmed each plasmid was transformed separately into Agrobacterium tumefaciens strain GV3101 (pMP90). Tobacco leaves were infiltrated as previously described in[50]. Briefly, A. tumefaciens strains grown in 2YT medium were harvested by centrifugation and resuspended in infiltration medium (10 mM MES pH 5.6, 10 mM MgCl2, 150 µM acetosyringone) to a final OD600 of 0.2. Equal volumes of infiltration media containing relevant BiFC strains were mixed and infiltrated into the underside of tobacco leaves using a needleless syringe. Leaves were harvested after 3 days to isolate protoplasts following[51] and then immediately imaged.
BiFC images were captured at the La Trobe University LIMS BioImaging Facility using a LSM 510 confocal laser scanning microscope (Zeiss), with a × 40/1.2 water immersion objective. The natural red autofluorescence of chlorophyll was used as a marker for chloroplasts. Excitation/emission wavelengths were 488/505–530 nm for YFP and 561/650 nm long pass for red fluorescence. At least three images containing one or more protoplasts were taken for each of the plasmid construct combinations. Each image captured three separate filter scans, including YFP, red fluorescence and bright field. Post-processing of images was performed with ImageJ version 1.48 software (https://imagej.nih.gov/ij/). For each image the contrast for each panel was set at automatic contrast. A merged image was generated for reference with a 10 µm scale bar. The red fluorescence only panel was used to encircle ten chloroplasts as region of interest (ROI), then the YFP fluorescence (BiFC) calculated for each ROI was divided by the red fluorescence calculated for the same ROI. All BiFC/red fluorescence points were plotted using GraphPadPrism7 (GraphPadSoftware). Mean and standard error were calculated for each BiFC combination. All statistical analyses were performed using GraphPadPrism7.
Figure 4 AtPNP-A interacts with CAT2 in vivo. […] Exemplar merged images of protoplasts isolated from a leaf infiltrated with different combinations of N- or C-terminally tagged CAT2 and AtPNP-A are shown. (g) BiFC/Red fluorescence chloroplast analysis with mean ± SEM in pink.

As for `O=C(O)c1ccccc1O` [SA], in the data set on CAT2 transcript, the CAT2 transcript entry was “Increases in CAT2 transcript”.

B1: synthetic peptide containing the active region of AtPNP-A (amino acids 33-66) (peptide)
peptide: PYTRSACYGTQRETLVVGVKNNLWQNGRACGRRY
modifications: disulfide 7-30 (inferred); also: synthesized with or without C-terminal biotin
notes: active region of Arabidopsis thaliana plant natriuretic peptide A (AtPNP-A), amino acids 33-66; also called pAtPNP-A; AtPNP-A peptide; source: synthetic peptide (GenScript, purity > 95%)
In data set [1], B1 displayed a koff of 0.000941 s⁻¹ and a kon of 10900 M⁻¹ s⁻¹.

B2: rAtPNP-A: N-terminally 6xHis-tagged AtPNP-A expressed in BL21 (DE3) One Shot E. coli cells (protein)
chain: AQGKAVYYDPPYTRSACYGTQRETLVVGVKNNLWQNGRACGRRYRVRCIGATYNFDRACTGRTVDVKVVDFCREPCNGDLNLSRDAFRVIANTDAGNIRVVYTPI
modifications: left off: His6, N-terminal, state not stated
notes: N-terminally 6xHis-tagged AtPNP-A expressed in BL21 (DE3) One Shot E. coli cells
On to B2, for which the “SPR binding of recombinant AtPNP-A to CAT2” value in the data set on rCAT2 [2] is “bind specifically to CAT2”. The “In vitro enzymatic activity of rCAT2” value with rCAT2 [3] is given as “significantly enhanced”. For the same molecule, the “Total CAT activity of protein extracts” value in the data set on CAT (WT seedling protein, Amplex Red kit, mean ± SD, n = 3, P < 0.05) was “elevated total CAT activity”. Also, the “H2O2 breakdown by WT seedling protein extract” value with CAT (total protein extracted from WT seedlings, n = 3) is recorded as “more rapid H2O2 breakdown”. The “Protoplast swelling response (volume)” value in data set [4] is listed as “comparable to that elicited by an equimolar amount of the recombinant AtPNP-A (rAtPNP-A)”.

B3: CeYFP-AtPNP-A: C-terminal (CeYFP) fragment of eYFP followed by AtPNP-A coding region (protein)
chain: B2 chain
modifications: left off: CeYFP (C-terminal fragment of eYFP), N-terminal, kept
Regarding B3, the “BiFC / Red fluorescence signal, interaction with CAT2” value in the data set on CAT2 is given as “significantly higher”; in the data set on CAT2 (listed as CeYFP-tagged AtPNP-A) it was “greatest BiFC / Red fluorescence signal”.

B4: NeYFP-fused AtPNP-A: N-terminal (NeYFP) fragment of eYFP followed by AtPNP-A coding region (protein)
chain: B2 chain
modifications: left off: NeYFP (N-terminal fragment of eYFP), N-terminal, kept
For the molecule B4, the “BiFC / Red fluorescence signal, interaction with CAT2” value with CAT2 is recorded as “Lower BiFC/fluorescence signal”.
